Test results from the array DNA melting data of Ke et al..

Experiment: melting temperature; melt of duplexes
Details: sodium 0.0675 M; strand 1 µM

| Substance | Tm [°C] |
| --- | --- |
| CGACGTGCCCCATGTGCTG+CAGCACATGGGGCACGTCG (((((((((((((((((((+))))))))))))))))))) | 67.7 |
| CGACGTGCTCGATGTGCTG+CAGCACATCAGGCACGTCG ((((((((..(((((((((+)))))))))..)))))))) | 55.4 |
| CGACGTGCGCGATGTGCTG+CAGCACATGCAGCACGTCG ((((((((...((((((((+))))))))...)))))))) | 55.8 |
| CGACGTGCGAAATGTGCTG+CAGCACATCATGCACGTCG ((((((((...((((((((+))))))))...)))))))) | 49.9 |
| CGACGTGCGATATGTGCTG+CAGCACATGAAGCACGTCG ((((((((...((((((((+))))))))...)))))))) | 56.1 |
| CGACGTGCCTAATGTGCTG+CAGCACATTAAGCACGTCG ((((((((.((((((((((+)))))))))).)))))))) | 53.4 |
| CGACGTGCCCTATGTGCTG+CAGCACATATAGCACGTCG ((((((((..(((((((((+)))))))))..)))))))) | 49.6 |
| CGACGTGCAGCATGTGCTG+CAGCACATGCCGCACGTCG ((((((((.((((((((((+)))))))))).)))))))) | 59.1 |
| CGACGTGCGATATGTGCTG+CAGCACATCATGCACGTCG ((((((((...((((((((+))))))))...)))))))) | 50.1 |
| CGACGTGCAAAATGTGCTG+CAGCACATACGGCACGTCG ((((((((...((((((((+))))))))...)))))))) | 48 |
| CGACGTGCTAGATGTGCTG+CAGCACATCACGCACGTCG ((((((((..(((((((((+)))))))))..)))))))) | 54.3 |
| CGACGTGCGACATGTGCTG+CAGCACATCCCGCACGTCG (((((((((..((((((((+))))))))..))))))))) | 52.3 |
| CGACGTGCTGCATGTGCTG+CAGCACATGGCGCACGTCG ((((((((..(((((((((+)))))))))..)))))))) | 55.3 |
| CGACGTGCCTCATGTGCTG+CAGCACATATTGCACGTCG ((((((((...((((((((+))))))))...)))))))) | 46.7 |
| CGACGTGCAGGATGTGCTG+CAGCACATGGGGCACGTCG ((((((((...((((((((+))))))))...)))))))) | 50.4 |
| CGACGTGCGAAATGTGCTG+CAGCACATGGGGCACGTCG ((((((((...((((((((+))))))))...)))))))) | 52 |
| CGACGTGCGGAATGTGCTG+CAGCACATCCCGCACGTCG ((((((((((.((((((((+)))))))).)))))))))) | 60.3 |
| CGACGTGCCAAATGTGCTG+CAGCACATAAAGCACGTCG ((((((((...((((((((+))))))))...)))))))) | 49.9 |
| CGACGTGCGAAATGTGCTG+CAGCACATCTGGCACGTCG ((((((((.(.((((((((+)))))))).).)))))))) | 50.6 |
| CGACGTGCTCGATGTGCTG+CAGCACATGGAGCACGTCG ((((((((((.((((((((+)))))))).)))))))))) | 59.3 |
| CGACGTGCCACATGTGCTG+CAGCACATATTGCACGTCG ((((((((.(.((((((((+)))))))).).)))))))) | 47.4 |
| CGACGTGCACCATGTGCTG+CAGCACATCGGGCACGTCG ((((((((.(.((((((((+)))))))).).)))))))) | 49.4 |
| CGACGTGCCACATGTGCTG+CAGCACATAGGGCACGTCG (((((((((..((((((((+))))))))..))))))))) | 54.7 |
| CGACGTGCAAGATGTGCTG+CAGCACATCGTGCACGTCG (((((((((.(((((((((+))))))))).))))))))) | 57.4 |

| Substance | Tm [°C] |
| --- | --- |
| CGACGTGCCGAATGTGCTG+CAGCACATTAGGCACGTCG (((((((((.(((((((((+))))))))).))))))))) | 59.6 |
| CGACGTGCCCCATGTGCTG+CAGCACATCCTGCACGTCG ((((((((...((((((((+))))))))...)))))))) | 46.8 |
| CGACGTGCCTCATGTGCTG+CAGCACATACAGCACGTCG ((((((((...((((((((+))))))))...)))))))) | 48.3 |
| CGACGTGCAATATGTGCTG+CAGCACATTGTGCACGTCG (((((((((..((((((((+))))))))..))))))))) | 49.1 |
| CGACGTGCTGGATGTGCTG+CAGCACATCTTGCACGTCG ((((((((..(((((((((+)))))))))..)))))))) | 56.6 |
| CGACGTGCAACATGTGCTG+CAGCACATACTGCACGTCG (((((((((..((((((((+))))))))..))))))))) | 49.8 |
| CGACGTGCTACATGTGCTG+CAGCACATAGAGCACGTCG (((((((((..((((((((+))))))))..))))))))) | 52.5 |
| CGACGTGCCGAATGTGCTG+CAGCACATTGGGCACGTCG (((((((((.(((((((((+))))))))).))))))))) | 59 |
| CGACGTGCGTAATGTGCTG+CAGCACATTCGGCACGTCG ((((((((..(((((((((+)))))))))..)))))))) | 53.1 |
| CGACGTGCCATATGTGCTG+CAGCACATACCGCACGTCG ((((((((..(((((((((+)))))))))..)))))))) | 48.3 |
| CGACGTGCTAGATGTGCTG+CAGCACATTACGCACGTCG ((((((((...((((((((+))))))))...)))))))) | 50.1 |
| CGACGTGCTTAATGTGCTG+CAGCACATAGAGCACGTCG (((((((((..((((((((+))))))))..))))))))) | 53.1 |
| CGACGTGCGTGATGTGCTG+CAGCACATCTAGCACGTCG ((((((((..(((((((((+)))))))))..)))))))) | 57.2 |
| CGACGTGCCTCATGTGCTG+CAGCACATACGGCACGTCG (((((((((..((((((((+))))))))..))))))))) | 52.4 |
| CGACGTGCCGTATGTGCTG+CAGCACATGGTGCACGTCG ((((((((...((((((((+))))))))...)))))))) | 46.6 |
| CGACGTGCGGGATGTGCTG+CAGCACATTACGCACGTCG (((((((((..((((((((+))))))))..))))))))) | 58 |
| CGACGTGCTCGATGTGCTG+CAGCACATAACGCACGTCG ((((((((...((((((((+))))))))...)))))))) | 49 |
| CGACGTGCAAGATGTGCTG+CAGCACATATAGCACGTCG ((((((((.(.((((((((+)))))))).).)))))))) | 52 |
| CGACGTGCCACATGTGCTG+CAGCACATGCCGCACGTCG ((((((((..(((((((((+)))))))))..)))))))) | 52 |
| CGACGTGCCTTATGTGCTG+CAGCACATTGTGCACGTCG ((((((((...((((((((+))))))))...)))))))) | 45.7 |
| CGACGTGCTCGATGTGCTG+CAGCACATTGCGCACGTCG ((((((((.(.((((((((+)))))))).).)))))))) | 52.4 |
| CGACGTGCGCGATGTGCTG+CAGCACATTACGCACGTCG (((((((((..((((((((+))))))))..))))))))) | 54.9 |
| CGACGTGCTCAATGTGCTG+CAGCACATGCCGCACGTCG ((((((((...((((((((+))))))))...)))))))) | 49 |
| CGACGTGCAAGATGTGCTG+CAGCACATGGGGCACGTCG ((((((((...((((((((+))))))))...)))))))) | 50.8 |

| Substance | Tm [°C] |
| --- | --- |
| CGACGTGCGCTATGTGCTG+CAGCACATGTTGCACGTCG ((((((((...((((((((+))))))))...)))))))) | 49.6 |
| CGACGTGCTCTATGTGCTG+CAGCACATCGCGCACGTCG ((((((((.(.((((((((+)))))))).).)))))))) | 48.3 |
| CGACGTGCCAGATGTGCTG+CAGCACATATCGCACGTCG ((((((((.(.((((((((+)))))))).).)))))))) | 49.1 |
| CGACGTGCATGATGTGCTG+CAGCACATTTAGCACGTCG ((((((((...((((((((+))))))))...)))))))) | 49.8 |
| CGACGTGCACGATGTGCTG+CAGCACATACGGCACGTCG ((((((((...((((((((+))))))))...)))))))) | 48.2 |
| CGACGTGCATAATGTGCTG+CAGCACATTAGGCACGTCG ((((((((.((((((((((+)))))))))).)))))))) | 57.7 |
| CGACGTGCTTCATGTGCTG+CAGCACATACTGCACGTCG ((((((((...((((((((+))))))))...)))))))) | 48.3 |
| CGACGTGCATCATGTGCTG+CAGCACATCTAGCACGTCG ((((((((...((((((((+))))))))...)))))))) | 47.3 |
| CGACGTGCTAAATGTGCTG+CAGCACATCCCGCACGTCG ((((((((...((((((((+))))))))...)))))))) | 48.9 |
| CGACGTGCTATATGTGCTG+CAGCACATCCTGCACGTCG ((((((((...((((((((+))))))))...)))))))) | 48.3 |
| CGACGTGCAATATGTGCTG+CAGCACATTCTGCACGTCG (((((((((..((((((((+))))))))..))))))))) | 50.7 |
| CGACGTGCGTCATGTGCTG+CAGCACATCGAGCACGTCG ((((((((...((((((((+))))))))...)))))))) | 52.3 |
| CGACGTGCGGTATGTGCTG+CAGCACATCCAGCACGTCG ((((((((.(.((((((((+)))))))).).)))))))) | 55.1 |
| CGACGTGCTCAATGTGCTG+CAGCACATTCGGCACGTCG ((((((((..(((((((((+)))))))))..)))))))) | 51.2 |
| CGACGTGCCCGATGTGCTG+CAGCACATCAAGCACGTCG ((((((((..(((((((((+)))))))))..)))))))) | 52.8 |
| CGACGTGCCGAATGTGCTG+CAGCACATCAGGCACGTCG (((((((((..((((((((+))))))))..))))))))) | 55.4 |
| CGACGTGCCGCATGTGCTG+CAGCACATCTGGCACGTCG (((((((((..((((((((+))))))))..))))))))) | 54.2 |
| CGACGTGCAGGATGTGCTG+CAGCACATACGGCACGTCG ((((((((.(.((((((((+)))))))).).)))))))) | 56.1 |
| CGACGTGCCTGATGTGCTG+CAGCACATAGTGCACGTCG ((((((((...((((((((+))))))))...)))))))) | 46.5 |
| CGACGTGCTTCATGTGCTG+CAGCACATCCGGCACGTCG ((((((((...((((((((+))))))))...)))))))) | 47.8 |
| CGACGTGCCAAATGTGCTG+CAGCACATTAGGCACGTCG (((((((((.(((((((((+))))))))).))))))))) | 57.8 |
| CGACGTGCCCTATGTGCTG+CAGCACATCTTGCACGTCG ((((((((...((((((((+))))))))...)))))))) | 47.3 |
| CGACGTGCTGAATGTGCTG+CAGCACATGTAGCACGTCG (((((((((..((((((((+))))))))..))))))))) | 54.3 |
| CGACGTGCCACATGTGCTG+CAGCACATACTGCACGTCG ((((((((...((((((((+))))))))...)))))))) | 47.2 |
